Data reported in US20100048412A1.

Target: R19-Ava-…-NH2 (2)
Test: cell-based or functional assay

prostate-specific antigen (PSA), proteolytically active (from UniProt P07288 25-261) (enzyme)
suppression of peptide digestion by 420 nM PSA after addition of the protease inhibitor mix (AEBSF, Aprotinin, Elastatinal, GGACK): > 90%
